Strand notation (5' to 3'): a small letter for the sugar, then the base; units joined by * are phosphorothioate-linked, units joined directly phosphodiester-linked; [ ] holds rarer units or linkages, { } end groups; capitals alone tell only the bases. m = 2'-O-methyl; r = 2'-OH (RNA)
What was measured:
TTR [1] = assay: TTR editing dose response (EC50, maximum editing) in primary cyno hepatocytes treated with LNP formulated U-depleted Spy Cas9 mRNA and sgRNAs; type: cell-based, cynomolgus monkey
Procedure: (§1) Primary liver hepatocytes. Primary human liver hepatocytes (PHH) and primary cynomolgus liver hepatocytes (PCH) (Gibco) were cultured per the manufacturer's protocol (Invitrogen, protocol 11.28.2012). In brief, the cells were thawed and resuspended in hepatocyte thawing medium with supplements (Gibco, Cat. CM7000) followed by centrifugation at 100 g for 10 minutes for human and 80 g for 4 minutes for cyno. The supernatant was discarded and the pelleted cells resuspended in hepatocyte plating medium plus supplement pack (Invitrogen, Cat. A1217601 and CM3000). Cells were counted and plated on Bio-coat collagen I coated 96-well plates (ThermoFisher, Cat. 877272) at a density of 33,000 cells/well for human or 60,000 cells/well for cyno (or 65,000 cells/well when assaying effects on TTR protein, described further below). Plated cells were allowed to settle and adhere for 6 or 24 hours in a tissue culture incubator at 37° C. and 5% CO2 atmosphere. After incubation cells were checked for monolayer formation and media was replaced with hepatocyte culture medium with serum-free supplement pack (Invitrogen, Cat. A1217601 and CM4000).
(§2) For LNPs prepared using the cross-flow technique, the LNPs were formed by impinging jet mixing of the lipid in ethanol with two volumes of RNA solutions and one volume of water. The lipid in ethanol is mixed through a mixing cross with the two volumes of RNA solution. A fourth stream of water is mixed with the outlet stream of the cross through an inline tee. (See WO2016010840 FIG. 2.) The LNPs were held for 1 hour at room temperature, and further diluted with water (approximately 1:1 v/v). Diluted LNPs were concentrated using tangential flow filtration on a flat sheet cartridge (Sartorius, 100 kD MWCO) and then buffer exchanged by diafiltration into 50 mM Tris, 45 mM NaCl, 5% (w/v) sucrose, pH 7.5 (TSS). Alternatively, the final buffer exchange into TSS was completed with PD-10 desalting columns (GE). If required, formulations were concentrated by centrifugation with Amicon 100 kDa centrifugal filters (Millipore). The resulting mixture was then filtered using a 0.2 μm sterile filter. The final LNP was stored at 4° C. or −80° C. until further use.
(§3) Additional PCR was performed per the manufacturer's protocols (Illumina) to add chemistry for sequencing. The amplicons were sequenced on an Illumina MiSeq instrument. The reads were aligned to a reference genome (e.g., the human reference genome (hg38), the cynomologus reference genome (mf5), the rat reference genome (rn6), or the mouse reference genome (mm10)) after eliminating those having low quality scores. The resulting files containing the reads were mapped to the reference genome (BAM files), where reads that overlapped the target region of interest were selected and the number of wild type reads versus the number of reads which contain an insertion, substitution, or deletion was calculated.
(§4) The editing percentage (e.g., the “editing efficiency” or “percent editing” or “indel frequency”) is defined as the total number of sequence reads with insertions/deletions (“indels”) or substitutions over the total number of sequence reads, including wild type.
(§5) Lipid nanoparticle formulations of modified sgRNAs targeting human TTR and the cyno matched sgRNA sequences were tested on primary human hepatocytes and primary cyno hepatocytes in a dose response curve. Primary human and cyno hepatocytes were plated as described in Example 1. Both cell lines were incubated at 37° C., 5% CO2 for 24 hours prior to treatment with LNPs. The LNPs used in the experiments detailed in Tables 20-22 were prepared using the cross-flow procedure described above but purified using PD-10 columns (GE Healthcare Life Sciences) and concentrated using Amicon centrifugal filter units (Millipore Sigma), each containing the specified sgRNA and Cas9 mRNA (SEQ ID NO:1). […] LNPs were incubated in hepatocyte maintenance media containing 6% cyno serum at 37° C., 5% CO2 for 5 minutes. […]

TTR [2] = assay: TTR editing in primary human hepatocytes treated with LNP formulated Spy Cas9 mRNA (SEQ ID NO: 2) and sgRNAs, 12.5 ng mRNA; type: cell-based; conditions: for 12.5 ng mRNA, 3.9 nM sgRNA, Avg % Edit: LNP formulated Spy Cas9 mRNA (SEQ ID NO: 2) and sgRNA, 72 hours
Procedure: as §1
In general, the lipid nanoparticle components were dissolved in 100% ethanol with the lipid component of various molar ratios. The RNA cargos were dissolved in 25 mM citrate, 100 mM NaCl, pH 5.0, resulting in a concentration of RNA cargo of approximately 0.45 mg/mL. The LNPs were formulated with a lipid amine to RNA phosphate (N:P) molar ratio of about 4.5 or about 6, with the ratio of mRNA to gRNA at 1:1 by weight.
The LNPs were formed by microfluidic mixing of the lipid and RNA solutions using a Precision Nanosystems NanoAssemblr™ Benchtop Instrument, according to the manufacturer's protocol. A 2:1 ratio of aqueous to organic solvent was maintained during mixing using differential flow rates. After mixing, the LNPs were collected, diluted in water (approximately 1:1 v/v), held for 1 hour at room temperature, and further diluted with water (approximately 1:1 v/v) before final buffer exchange. The final buffer exchange into 50 mM Tris, 45 mM NaCl, 5% (w/v) sucrose, pH 7.5 (TSS) was completed with PD-10 desalting columns (GE). If required, formulations were concentrated by centrifugation with Amicon 100 kDa centrifugal filters (Millipore). The resulting mixture was then filtered using a 0.2 μm sterile filter. The final LNP was stored at −80° C. until further use.
as §3, §4
Lipid nanoparticle formulations of modified sgRNAs targeting human TTR and the cyno matched sgRNA sequences were tested on primary human hepatocytes and primary cyno hepatocytes in a dose response curve. Primary human and cyno hepatocytes were plated as described in Example 1. Both cell lines were incubated at 37° C., 5% CO2 for 24 hours prior to treatment with LNPs. The LNPs used in the experiments detailed in Tables 18-21 were prepared using the Nanoassemblr™ procedure, each containing the specified sgRNA and Cas9 mRNA (SEQ ID NO:2), each having Lipid. […]

[3] = test system: potential off-target genomic sites; assay: Off-target analysis by oligo insertion based assay in primary human hepatocytes (sgRNAs); type: cell-based; conditions: 100 ng Cas9 mRNA, 25 nM sgRNA, 12.5 nM donor oligo, 48 h
Procedure: Off-target analysis of sgRNAs targeting TTR was performed in primary human hepatocytes (PHH) as described in Example 5, with the following modifications. PHH were plated at a density of 33,000 cells per well on collagen-coated 96-well plates as described in Example 1. Twenty-four hours post plating, cells were washed with media and transfected using Lipofectamine RNAiMAX (ThermoFisher, Cat. 13778150) as described in Example 1. Cells were transfected with a lipoplex containing 100 ng Cas9 mRNA, immediately followed by the addition of another lipoplex containing 25 nM of the sgRNA and 12.5 nM of the donor oligo (0.3 μL/well). Cells were lysed 48 hours post-transfection and gDNA was extracted and analyzed as further described in Example 5. The data is graphically represented in FIG. 20.
Fewer sites were detected in PHH for every guide tested as compared to the HekCas9 cell line, with no unique sites detected in PHH alone.

TTR [4] = assay: TTR editing dose response (EC50, maximum editing) in primary human hepatocytes treated with LNP formulated U-depleted Spy Cas9 mRNA and sgRNAs; type: cell-based
Procedure: as §1, §2, §3, §4, §5

[5] = LNP formulated U-depleted Spy Cas9 mRNA and human specific sgRNAs
[6] = LNP formulated U-depleted Spy Cas9 mRNA and human specific sgRNAs, dose response

Row | Molecule | Max Editing (TTR [1]; [5]) [%] | 12.5 ng mRNA, 3.9 nM sgRNA, Avg % Edit (TTR [2]) [%] | # Sites in PHH (off-target integration sites detected) [3] | Max Editing (TTR [4]; [6]) [%] | Max Editing (TTR [4]; LNP with U-depleted Spy Cas9 mRNA and cyno specific sgRNA, 8 point 3-fold dose response starting at 300 ng mRNA, 72 hours) [%] | Max Editing (TTR [1]; LNP formulated U-depleted Spy Cas9 mRNA and cyno specific sgRNAs) [%] | dose response curve of % editing (shape) (TTR [2]; LNP formulated Spy Cas9 mRNA and sgRNA, 8 point 2-fold dose response starting at 100 ng mRNA)
1 | G000567: TTR sgRNA modified sequence, Human, SEQ ID NO: 109; guide sequence of CR003352 (nucleic acid) guide: mG*mA*mA*rArGrGrCrUrGrCrUrGrArUrGrArCrArCrCrGrUrUrUrUrArGrAmGmCmUmAmGmAmAmAmUmAmGmCrArArGrUrUrArArArArUrArArGrGrCrUrArGrUrCrCrGrUrUrArUrCrAmAmCmUmUmGmAmAmAmAmAmGmUmGmGmCmAmCmCmGmAmGmUmCmGmGmUmGmCmU*mU*mU*mU | 97.06 | 48.95 | 0 |  |  |  | 
2 | G000499: TTR sgRNA modified sequence, Human, SEQ ID NO: 106; guide sequence of CR005303 (nucleic acid) guide: mU*mG*mA*rArUrCrCrArArGrUrGrUrCrCrUrCrUrGrArGrUrUrUrUrArGrAmGmCmUmAmGmAmAmAmUmAmGmCrArArGrUrUrArArArArUrArArGrGrCrUrArGrUrCrCrGrUrUrArUrCrAmAmCmUmUmGmAmAmAmAmAmGmUmGmGmCmAmCmCmGmAmGmUmCmGmGmUmGmCmU*mU*mU*mU | 74.94 | 16.07 | 1 | 96.31 |  |  | 
3 | G000502: TTR Cyno specific sgRNA modified sequence, SEQ ID NO: 114; guide sequence of CR000689; cross homologous between mouse and cyno (nucleic acid) guide: mA*mC*mA*rCrArArArUrArCrCrArGrUrCrCrArGrCrGrGrUrUrUrUrArGrAmGmCmUmAmGmAmAmAmUmAmGmCrArArGrUrUrArArArArUrArArGrGrCrUrArGrUrCrCrGrUrUrArUrCrAmAmCmUmUmGmAmAmAmAmAmGmUmGmGmCmAmCmCmGmAmGmUmCmGmGmUmGmCmU*mU*mU*mU |  |  |  |  | 91.5 | 100.05 | 
4 | G000486: TTR sgRNA modified sequence, Human, SEQ ID NO: 93; guide sequence of CR003339 (nucleic acid) guide: mA*mC*mA*rCrArArArUrArCrCrArGrUrCrCrArGrCrArGrUrUrUrUrArGrAmGmCmUmAmGmAmAmAmUmAmGmCrArArGrUrUrArArArArUrArArGrGrCrUrArGrUrCrCrGrUrUrArUrCrAmAmCmUmUmGmAmAmAmAmAmGmUmGmGmCmAmCmCmGmAmGmUmCmGmGmUmGmCmU*mU*mU*mU |  | 61.33 | 0 |  |  |  | 
5 | G000482: TTR sgRNA modified sequence, Human, SEQ ID NO: 89; guide sequence of CR003365 (nucleic acid) guide: mU*mG*mU*rArGrArArGrGrGrArUrArUrArCrArArArGrGrUrUrUrUrArGrAmGmCmUmAmGmAmAmAmUmAmGmCrArArGrUrUrArArArArUrArArGrGrCrUrArGrUrCrCrGrUrUrArUrCrAmAmCmUmUmGmAmAmAmAmAmGmUmGmGmCmAmCmCmGmAmGmUmCmGmGmUmGmCmU*mU*mU*mU | 97.47 | 19.10 | 2 | 97.02 |  |  | 
6 | G000494: TTR sgRNA modified sequence, Human, SEQ ID NO: 101; guide sequence of CR003360 (nucleic acid) guide: mG*mU*mG*rArGrUrCrUrGrGrArGrArGrCrUrGrCrArUrGrUrUrUrUrArGrAmGmCmUmAmGmAmAmAmUmAmGmCrArArGrUrUrArArArArUrArArGrGrCrUrArGrUrCrCrGrUrUrArUrCrAmAmCmUmUmGmAmAmAmAmAmGmUmGmGmCmAmCmCmGmAmGmUmCmGmGmUmGmCmU*mU*mU*mU | 60.84 | 6.37 | 0 | 75.70 |  |  | 
7 | G000570: TTR sgRNA modified sequence, Human, SEQ ID NO: 111; guide sequence of CR003347 (nucleic acid) guide: mC*mA*mU*rUrGrArUrGrGrCrArGrGrArCrUrGrCrCrUrGrUrUrUrUrArGrAmGmCmUmAmGmAmAmAmUmAmGmCrArArGrUrUrArArArArUrArArGrGrCrUrArGrUrCrCrGrUrUrArUrCrAmAmCmUmUmGmAmAmAmAmAmGmUmGmGmCmAmCmCmGmAmGmUmCmGmGmUmGmCmU*mU*mU*mU | 96.73 | 88.30 | 1 | 98.22 |  |  | uncharacteristic dose response curve
8 | G000480: TTR sgRNA modified sequence, Human, SEQ ID NO: 87; guide sequence of CR003353 (nucleic acid) guide: mA*mA*mA*rGrGrCrUrGrCrUrGrArUrGrArCrArCrCrUrGrUrUrUrUrArGrAmGmCmUmAmGmAmAmAmUmAmGmCrArArGrUrUrArArArArUrArArGrGrCrUrArGrUrCrCrGrUrUrArUrCrAmAmCmUmUmGmAmAmAmAmAmGmUmGmGmCmAmCmCmGmAmGmUmCmGmGmUmGmCmU*mU*mU*mU | 20.32 | 59.33 | 2 | 98.69 |  |  | 
9 | G000483: TTR sgRNA modified sequence, Human, SEQ ID NO: 90; guide sequence of CR005298 (nucleic acid) guide: mU*mC*mC*rArCrUrCrArUrUrCrUrUrGrGrCrArGrGrArGrUrUrUrUrArGrAmGmCmUmAmGmAmAmAmUmAmGmCrArArGrUrUrArArArArUrArArGrGrCrUrArGrUrCrCrGrUrUrArUrCrAmAmCmUmUmGmAmAmAmAmAmGmUmGmGmCmAmCmCmGmAmGmUmCmGmGmUmGmCmU*mU*mU*mU | 56.52 | 7.37 | 0 | 77.39 |  |  | 
